Results reported in article PMC5524640, “Evasion of immunosurveillance by genomic alterations of PPARγ/RXRα in bladder cancer” (Nature Communications, 2017).
Values belong to the binder of their own block, whether it stands above or below them.

Experiments:
[1] = molecular target: T1, His-TEV-RXRα-WT (223-462) (Homo sapiens (Human), UniProt P19793); test: SPR; monomer fraction of RXRα WT used (apo tetramer is inactive)
T1 chain: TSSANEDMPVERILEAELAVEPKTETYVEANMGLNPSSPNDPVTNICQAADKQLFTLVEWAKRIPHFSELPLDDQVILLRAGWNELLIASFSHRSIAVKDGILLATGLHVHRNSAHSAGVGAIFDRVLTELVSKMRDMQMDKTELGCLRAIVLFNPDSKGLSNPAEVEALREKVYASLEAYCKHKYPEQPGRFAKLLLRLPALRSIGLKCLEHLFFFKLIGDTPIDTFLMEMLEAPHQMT

[2] = molecular target: T2, His-TEV-RXRα-S427F (223-462) (Homo sapiens (Human), UniProt P19793); test: SPR (also analytical size exclusion chromatography); S427F mutant of RXRα; binding seen without added ligand
T2 chain: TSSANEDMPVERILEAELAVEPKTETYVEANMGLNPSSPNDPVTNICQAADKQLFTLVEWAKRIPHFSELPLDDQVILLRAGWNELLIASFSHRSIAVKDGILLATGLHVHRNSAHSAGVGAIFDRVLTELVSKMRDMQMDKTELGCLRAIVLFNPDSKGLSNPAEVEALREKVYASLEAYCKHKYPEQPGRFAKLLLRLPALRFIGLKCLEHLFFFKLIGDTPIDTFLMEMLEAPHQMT

[3] = molecular target: the molecule itself; test: SEC; 16/60 Sephacryl S-300 in 25 mM Tris-HCl pH 8.0, 100 mM NaCl, 10% glycerol, 1 mM TCEP; no exogenous ligand; tetramer and monomer peaks
His-TEV-PPARγ (234-505) = molecular target: T3, His-TEV-PPARγ (234-505) (human, UniProt P37231 234-505); test: SEC; analytical, 10/300 Superdex 200; equivalent molar volumes loaded; heterodimer formed by mixing the two proteins at a 1:1 molar ratio; no ligand; conditions: both partners purified
T3 construct: The methods name no species for the bacterial construct; No tag cleavage is described for this preparation; also called PPARg; source: E. coli, purified (Ni-NTA, size exclusion chromatography)
T3 sequence (looked up): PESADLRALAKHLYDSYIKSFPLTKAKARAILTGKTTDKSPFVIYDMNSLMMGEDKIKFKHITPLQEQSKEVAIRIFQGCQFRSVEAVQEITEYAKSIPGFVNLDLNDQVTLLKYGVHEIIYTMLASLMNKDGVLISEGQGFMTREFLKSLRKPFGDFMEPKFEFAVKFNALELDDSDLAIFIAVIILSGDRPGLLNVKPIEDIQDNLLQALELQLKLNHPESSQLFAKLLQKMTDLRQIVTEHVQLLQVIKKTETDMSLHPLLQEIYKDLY

- binding result [1]: binds
- binding result [2]: binds
B1: His-TEV-PPARγ (234-505) (protein)
chain: PESADLRALAKHLYDSYIKSFPLTKAKARAILTGKTTDKSPFVIYDMNSLMMGEDKIKFKHITPLQEQSKEVAIRIFQGCQFRSVEAVQEITEYAKSIPGFVNLDLNDQVTLLKYGVHEIIYTMLASLMNKDGVLISEGQGFMTREFLKSLRKPFGDFMEPKFEFAVKFNALELDDSDLAIFIAVIILSGDRPGLLNVKPIEDIQDNLLQALELQLKLNHPESSQLFAKLLQKMTDLRQIVTEHVQLLQVIKKTETDMSLHPLLQEIYKDLY

B2: His-TEV-RXRα-WT (223-462) (domain or fragment, human, UniProt P19793 223-462, looked up)
chain: TSSANEDMPVERILEAELAVEPKTETYVEANMGLNPSSPNDPVTNICQAADKQLFTLVEWAKRIPHFSELPLDDQVILLRAGWNELLIASFSHRSIAVKDGILLATGLHVHRNSAHSAGVGAIFDRVLTELVSKMRDMQMDKTELGCLRAIVLFNPDSKGLSNPAEVEALREKVYASLEAYCKHKYPEQPGRFAKLLLRLPALRSIGLKCLEHLFFFKLIGDTPIDTFLMEMLEAPHQMT
- stoichiometry N [3]: 4

- binding result (His-TEV-PPARγ (234-505)): binds
B3: His-TEV-RXRα-S427F (223-462) (domain or fragment, human, UniProt P19793 223-462, looked up)
chain: TSSANEDMPVERILEAELAVEPKTETYVEANMGLNPSSPNDPVTNICQAADKQLFTLVEWAKRIPHFSELPLDDQVILLRAGWNELLIASFSHRSIAVKDGILLATGLHVHRNSAHSAGVGAIFDRVLTELVSKMRDMQMDKTELGCLRAIVLFNPDSKGLSNPAEVEALREKVYASLEAYCKHKYPEQPGRFAKLLLRLPALRFIGLKCLEHLFFFKLIGDTPIDTFLMEMLEAPHQMT
notes: S427F is a recurrent mutation found in patients' tumours; No tag cleavage is described for this preparation; also called the mutant; source: E. coli, purified (Ni-NTA, size exclusion chromatography)
